Measurements taken from paper PMC13478228 (2026).

What was measured:
[1] = biological target: T1, human cytosolic seryl-tRNA synthetase (SerRS), tag-free, purified separately (human, UniProt P49591 1-514); test: 2000 uM ADPR
[2] = biological target: T1, human cytosolic seryl-tRNA synthetase …; test: 2000 uM NAD+
[3] = biological target: T1, human cytosolic seryl-tRNA synthetase …; test: 80 uM ADPR

B1: human sirtuin 2 (SIRT2), C-terminal His tag (enzyme)
chain: MAEPDPSHPLETQAGKVQEAQDSDSDSEGGAAGGEADMDFLRNLFSQTLSLGSQKERLLDELTLEGVARYMQSERCRRVICLVGAGISTSAGIPDFRSPSTGLYDNLEKYHLPYPEAIFEISYFKKHPEPFFALAKELYPGQFKPTICHYFMRLLKDKGLLLRCYTQNIDTLERIAGLEQEDLVEAHGTFYTSHCVSASCRHEYPLSWMKEKIFSEVTPKCEDCQSLVKPDIVFFGESLPARFFSCMQSDFLKVDLLLVMGTSLQVQPFASLISKAPLSTPRLLINKEKAGQSDPFLGMIMGLGGGMDFDSKKAYRDVAWLGECDQGCLALAELLGWKKELEDLVRREHASIDAQSGAGVPNPSTSASPKKSPPPAKDEARTTEREKPQ
Work on B1 yielded a Kd [1] of 430 nM, a Kd [2] of 530 nM and a Kd [3] of 530 nM.
